# Laboratory results from the Human Domainome abundance scans (Beltran et al. 2025).
# ± gives the uncertainty stated by the source.
# B1: Tripartite motif-containing protein 44, residues 174 to 218; numbered along this chain, Q96DX7 (parent)
# chain: VAKRKCPDHGLDLSTYCQEDRQLICVLCPVIGAHQGHQLSTLDEA
# Variants of: B1
# Assay: abundance fitness (aPCA) (normalised: wild type 0, dead -1); higher = more abundant; growth selection in yeast, the domain comes from the species named
# Conditions: Homo sapiens
row,Variant,abundance fitness
1,VAKRKCPDHGLDLSTYCQEPRQLICVLCPVIGAHQGHQLSTLDEA [D20P],-0.896 ± 0.079
2,VAKRKCPDHGLDLSTYCQEDRQLICVLCPVILAHQGHQLSTLDEA [G32L],-0.775 ± 0.042
3,VAKRKCPDHGLDLSTYCQEDRQLICVLCPVIGAHQGHQLSTLDED [A45D],0.002 ± 0.05
4,VAKRKCPDHGLDLRTYCQEDRQLICVLCPVIGAHQGHQLSTLDEA [S14R],-0.098 ± 0.027
5,VAKRKCPDHGLDLNTYCQEDRQLICVLCPVIGAHQGHQLSTLDEA [S14N],0.094 ± 0.06
6,VAKRKCPDHGLDLQTYCQEDRQLICVLCPVIGAHQGHQLSTLDEA [S14Q],-0.001 ± 0.034
7,VAKRKCPDHGLDLETYCQEDRQLICVLCPVIGAHQGHQLSTLDEA [S14E],0.033 ± 0.028
8,VAKRKCPDHGLDLSTYCQEDRQLICVLCPVIGAHQGHQLCTLDEA [S40C],-0.027 ± 0.032
9,VAKRKCPDHGLDLSTYCQEDRQLICVLCPVIGAHQGHQLATLDEA [S40A],-0.008 ± 0.027
10,VAKRKCPDHGLDLSTYCQEDRQLICVLCPVIGAHQGHQLFTLDEA [S40F],-0.108 ± 0.041
11,VAKRKCPDHGLDLSTYCQEDRQLICVLCPQIGAHQGHQLSTLDEA [V30Q],0.045 ± 0.031
12,VAKRKCPDHGLDLSTYCQEDRQLICVLCPSIGAHQGHQLSTLDEA [V30S],0.005 ± 0.028
13,VAKRKCPDHGLDLSTYCQEDRQLICVLCPWIGAHQGHQLSTLDEA [V30W],-0.159 ± 0.028
14,VAKRKDPDHGLDLSTYCQEDRQLICVLCPVIGAHQGHQLSTLDEA [C6D],-0.701 ± 0.076
15,VAKRKCPDHGLDLSCYCQEDRQLICVLCPVIGAHQGHQLSTLDEA [T15C],-0.153 ± 0.034
16,VAKRKCPDHGLDLSKYCQEDRQLICVLCPVIGAHQGHQLSTLDEA [T15K],0.048 ± 0.035
17,VAKRKCPDHGLDLSIYCQEDRQLICVLCPVIGAHQGHQLSTLDEA [T15I],-0.137 ± 0.062
18,VAKRKCPDHGLDLSHYCQEDRQLICVLCPVIGAHQGHQLSTLDEA [T15H],-0.033 ± 0.043
19,VAKRKCPEHGLDLSTYCQEDRQLICVLCPVIGAHQGHQLSTLDEA [D8E],0.044 ± 0.029

row,Variant,abundance fitness
1,VAKRKCPHHGLDLSTYCQEDRQLICVLCPVIGAHQGHQLSTLDEA [D8H],0.038 ± 0.058
2,VAKRKCPWHGLDLSTYCQEDRQLICVLCPVIGAHQGHQLSTLDEA [D8W],-0.105 ± 0.032
3,VAKRKCPDHGLDLSTYCWEDRQLICVLCPVIGAHQGHQLSTLDEA [Q18W],-0.189 ± 0.031
4,VAKRKCPDHGLDLSTYCCEDRQLICVLCPVIGAHQGHQLSTLDEA [Q18C],-0.041 ± 0.037
5,VAKRKCPDHGLDLSTYCQEDRQLIDVLCPVIGAHQGHQLSTLDEA [C25D],-0.662 ± 0.072
6,VAKRKCPDHGLDLSTYCQEDRQLILVLCPVIGAHQGHQLSTLDEA [C25L],-1.25 ± 0.1
7,VAKRKCPDHGLDLSTYCQEDRQLIYVLCPVIGAHQGHQLSTLDEA [C25Y],-0.601 ± 0.12
8,VAKRKCPDHGLDLSTGCQEDRQLICVLCPVIGAHQGHQLSTLDEA [Y16G],-0.373 ± 0.027
9,VAKRKCPDHGLDLSTVCQEDRQLICVLCPVIGAHQGHQLSTLDEA [Y16V],-0.052 ± 0.028
10,VAKRKCPDHGLDLSTYCQEDRQGICVLCPVIGAHQGHQLSTLDEA [L23G],-0.001 ± 0.025
11,VAKRKCPDHGLDLSTYCQEDRQEICVLCPVIGAHQGHQLSTLDEA [L23E],0.066 ± 0.03
12,VAKRKCPDHGLDLSTYCQEDDQLICVLCPVIGAHQGHQLSTLDEA [R21D],0.071 ± 0.035
13,VAKRKCPDHGLDLSTYCQEDCQLICVLCPVIGAHQGHQLSTLDEA [R21C],0.009 ± 0.032
14,VAKRKCPDHGLDLSTYCQEDRQLICVLCPVIGAHQGHGLSTLDEA [Q38G],-0.009 ± 0.026
15,VAKRKCPDHGLDLSTYCQEDRQLICVLCPVIGAHQGHCLSTLDEA [Q38C],-0.051 ± 0.037
16,VAKRKCPDHGLDLSTYCQEDRQLICVLCPVIGAHQKHQLSTLDEA [G36K],-0.128 ± 0.033
17,VAKRKCPDHGLDLSTYCQEDRQLICVLCPVIGAHQHHQLSTLDEA [G36H],-0.033 ± 0.046
18,VAKRKCPDHGLDLSTYCQEDRQLICVLCPVIGAHQIHQLSTLDEA [G36I],-0.623 ± 0.13
19,VAKRKCSDHGLDLSTYCQEDRQLICVLCPVIGAHQGHQLSTLDEA [P7S],-0.089 ± 0.039

row,Variant,abundance fitness
1,VAKRKCYDHGLDLSTYCQEDRQLICVLCPVIGAHQGHQLSTLDEA [P7Y],-0.226 ± 0.048
2,VAKRKCPDHGLDLSTYCQEDRQLICVLCPVIGAHQGHQLSELDEA [T41E],0.02 ± 0.028
3,VAKRKCPDHGLDLSTYCQEDRQLICVLKPVIGAHQGHQLSTLDEA [C28K],-0.744 ± 0.062
4,VAKRKCPDHGLDLSTYCQEDRQLICVLRPVIGAHQGHQLSTLDEA [C28R],-1 ± 0.043
5,VAKRKCPDHGLDLSTYCQEDRQLICVLVPVIGAHQGHQLSTLDEA [C28V],-1.06 ± 0.051
6,VAKRKCPDHGLDLSTYCQEDRQLICVLHPVIGAHQGHQLSTLDEA [C28H],-0.994 ± 0.14
7,VAKRKCPDHGLDLSTYCQEDRQLICVLTPVIGAHQGHQLSTLDEA [C28T],-0.982 ± 0.066
8,DAKRKCPDHGLDLSTYCQEDRQLICVLCPVIGAHQGHQLSTLDEA [V1D],-0.112 ± 0.041
9,RAKRKCPDHGLDLSTYCQEDRQLICVLCPVIGAHQGHQLSTLDEA [V1R],-0.39 ± 0.057
10,GAKRKCPDHGLDLSTYCQEDRQLICVLCPVIGAHQGHQLSTLDEA [V1G],-0.107 ± 0.029
11,FAKRKCPDHGLDLSTYCQEDRQLICVLCPVIGAHQGHQLSTLDEA [V1F],-0.197 ± 0.06
12,LAKRKCPDHGLDLSTYCQEDRQLICVLCPVIGAHQGHQLSTLDEA [V1L],-0.196 ± 0.038
13,MAKRKCPDHGLDLSTYCQEDRQLICVLCPVIGAHQGHQLSTLDEA [V1M],-0.032 ± 0.056
14,VAKRKCPDHGLDTSTYCQEDRQLICVLCPVIGAHQGHQLSTLDEA [L13T],-0.079 ± 0.032
15,VAKRKCPDHGLDISTYCQEDRQLICVLCPVIGAHQGHQLSTLDEA [L13I],-0.154 ± 0.13
16,VAKRKCPDHGLDLSTYCQEDRQLICVLCPVIGAHQGHQLSTLAEA [D43A],-0.036 ± 0.027
17,VAKRKCPDHGLDLSTYCQEDRQLICVLCPVIGAHQGHQLSTLSEA [D43S],-0.026 ± 0.029
18,VAKRKCPDHGLDLSTYCQEDRQLICVLCPVIGAHQGHQLSTLFEA [D43F],-0.157 ± 0.034
19,VAKRKCPDHGLDLSTYCQEDRQLICVLCPVIGAHQGHQLSTLKEA [D43K],-0.073 ± 0.037
